How the values were obtained:
[1] = target: native allophycocyanin of Agarophyton chilensis, αβ unit (Agarophyton chilensis); test: SEC; Superdex 200 HiLoad 16/60; oligomer size estimated from a calibration curve of MW standards 1,750-670,000 Da (Bio-Rad gel filtration standard); oligomer of αβ units
[2] = target: recombinant allophycocyanin of Agarophyton chilensis, αβ unit (Agarophyton chilensis); test: as above

stoichiometry N [1]	stoichiometry N [2]	Substance
3		native allophycocyanin of Agarophyton chilensis, αβ unit (complex)
	3	recombinant allophycocyanin of Agarophyton chilensis, αβ unit (complex)
